Test results published in US20220001020A1.

Target: CD123 (human) (UniProt P26951)
Assay: cell-based or functional assay

Chain of UniProt P26951 (P26951 19-378): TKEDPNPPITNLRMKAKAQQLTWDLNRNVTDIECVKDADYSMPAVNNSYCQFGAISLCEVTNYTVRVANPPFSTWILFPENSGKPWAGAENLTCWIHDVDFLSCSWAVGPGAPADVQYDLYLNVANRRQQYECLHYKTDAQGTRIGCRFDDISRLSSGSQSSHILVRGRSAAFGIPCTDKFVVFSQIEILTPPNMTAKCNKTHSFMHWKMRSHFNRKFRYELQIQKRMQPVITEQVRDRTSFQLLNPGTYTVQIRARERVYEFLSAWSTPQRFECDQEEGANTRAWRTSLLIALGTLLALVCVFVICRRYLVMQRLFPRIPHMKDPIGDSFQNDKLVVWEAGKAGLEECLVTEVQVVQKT

## diphtheria toxin-human interleukin-3 conjugate (DT-IL3)
  IC50, cell viability assay: 4.8 nM
